One block for each substance: values may come before it.
Legend:
[1] = target: src_human SRC (UniProt P12931)
[2] = target: eps15_human EPS15 (UniProt P42566)
[3] = target: oxsr1_human OXSR1 (UniProt O95747)
[4] = target: G3BP2 (UniProt Q9UN86)
[5] = target: terf1_human TERF1 (UniProt P54274)
[6] = target: ima3_human KPNA4 (UniProt O00629)
[7] = target: ima3_human KPNA4 (UniProt O00629); remark: listed apart in the source

Sequence of oxsr1_human OXSR1 (O95747 whole entry, looked up): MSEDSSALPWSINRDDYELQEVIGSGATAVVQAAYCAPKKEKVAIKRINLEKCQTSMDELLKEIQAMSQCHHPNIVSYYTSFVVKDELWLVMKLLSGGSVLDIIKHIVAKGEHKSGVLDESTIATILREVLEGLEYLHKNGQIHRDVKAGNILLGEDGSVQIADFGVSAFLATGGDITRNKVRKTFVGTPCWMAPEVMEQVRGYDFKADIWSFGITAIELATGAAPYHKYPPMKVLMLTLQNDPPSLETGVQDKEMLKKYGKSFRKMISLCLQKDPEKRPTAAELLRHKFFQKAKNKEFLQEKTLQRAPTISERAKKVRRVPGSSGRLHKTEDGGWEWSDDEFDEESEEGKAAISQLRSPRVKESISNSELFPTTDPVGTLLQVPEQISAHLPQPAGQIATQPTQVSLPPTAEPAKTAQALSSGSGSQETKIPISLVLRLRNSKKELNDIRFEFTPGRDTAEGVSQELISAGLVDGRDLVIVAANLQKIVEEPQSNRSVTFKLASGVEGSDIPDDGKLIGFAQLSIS
Sequence of ima3_human KPNA4 (O00629 whole entry): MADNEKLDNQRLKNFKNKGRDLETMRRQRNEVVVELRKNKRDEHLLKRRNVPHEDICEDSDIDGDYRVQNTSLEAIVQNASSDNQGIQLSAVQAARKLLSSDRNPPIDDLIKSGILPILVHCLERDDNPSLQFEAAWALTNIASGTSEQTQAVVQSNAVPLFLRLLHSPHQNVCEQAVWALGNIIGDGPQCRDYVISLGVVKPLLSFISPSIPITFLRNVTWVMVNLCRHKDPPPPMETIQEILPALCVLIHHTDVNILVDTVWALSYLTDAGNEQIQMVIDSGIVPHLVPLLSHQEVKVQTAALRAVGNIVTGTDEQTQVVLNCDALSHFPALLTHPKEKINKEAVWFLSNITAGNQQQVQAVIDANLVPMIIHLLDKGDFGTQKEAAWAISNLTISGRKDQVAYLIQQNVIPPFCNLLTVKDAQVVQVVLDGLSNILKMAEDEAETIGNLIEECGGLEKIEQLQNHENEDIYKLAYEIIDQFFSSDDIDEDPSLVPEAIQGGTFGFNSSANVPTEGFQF
Sequence of ADP-ribosylation factor-like protein 13B (Homo sapiens), Q3SXY8 N255K (Q3SXY8 whole entry N255K): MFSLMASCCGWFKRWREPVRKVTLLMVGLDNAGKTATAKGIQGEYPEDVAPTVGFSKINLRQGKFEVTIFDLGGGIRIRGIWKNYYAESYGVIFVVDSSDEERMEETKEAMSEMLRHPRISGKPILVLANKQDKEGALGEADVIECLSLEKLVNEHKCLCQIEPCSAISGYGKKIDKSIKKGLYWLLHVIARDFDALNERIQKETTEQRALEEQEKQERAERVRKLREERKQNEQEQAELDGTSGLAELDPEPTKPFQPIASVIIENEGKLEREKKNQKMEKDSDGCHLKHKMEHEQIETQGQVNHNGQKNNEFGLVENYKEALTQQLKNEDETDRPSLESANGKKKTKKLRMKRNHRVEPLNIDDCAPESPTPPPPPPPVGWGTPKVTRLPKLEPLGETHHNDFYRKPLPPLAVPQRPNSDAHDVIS
Sequence of eps15_human EPS15 (P42566 whole entry): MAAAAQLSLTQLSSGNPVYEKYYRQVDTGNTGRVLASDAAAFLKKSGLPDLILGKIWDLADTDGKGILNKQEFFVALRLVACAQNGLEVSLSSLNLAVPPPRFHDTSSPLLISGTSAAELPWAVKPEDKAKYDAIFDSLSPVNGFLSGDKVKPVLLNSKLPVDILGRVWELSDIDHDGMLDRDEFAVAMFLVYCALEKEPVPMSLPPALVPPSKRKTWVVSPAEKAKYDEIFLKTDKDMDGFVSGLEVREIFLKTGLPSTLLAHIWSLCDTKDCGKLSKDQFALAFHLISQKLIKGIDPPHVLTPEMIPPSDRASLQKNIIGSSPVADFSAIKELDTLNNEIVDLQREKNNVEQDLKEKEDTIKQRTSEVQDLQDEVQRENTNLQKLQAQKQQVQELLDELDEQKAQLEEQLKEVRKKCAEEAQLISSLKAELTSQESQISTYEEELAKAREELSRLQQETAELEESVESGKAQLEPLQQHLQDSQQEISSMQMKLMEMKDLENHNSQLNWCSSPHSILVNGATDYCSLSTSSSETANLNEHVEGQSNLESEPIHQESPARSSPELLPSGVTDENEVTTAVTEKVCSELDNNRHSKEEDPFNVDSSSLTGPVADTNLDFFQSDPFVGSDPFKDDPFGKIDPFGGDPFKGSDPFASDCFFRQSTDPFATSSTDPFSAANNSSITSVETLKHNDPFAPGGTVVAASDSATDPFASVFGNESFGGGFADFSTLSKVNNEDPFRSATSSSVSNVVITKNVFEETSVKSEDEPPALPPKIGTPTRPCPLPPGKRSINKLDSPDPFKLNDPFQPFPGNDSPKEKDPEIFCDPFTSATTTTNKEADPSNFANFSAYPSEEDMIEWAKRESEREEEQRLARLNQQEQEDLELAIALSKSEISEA
Sequence of terf1_human TERF1 (P54274 whole entry): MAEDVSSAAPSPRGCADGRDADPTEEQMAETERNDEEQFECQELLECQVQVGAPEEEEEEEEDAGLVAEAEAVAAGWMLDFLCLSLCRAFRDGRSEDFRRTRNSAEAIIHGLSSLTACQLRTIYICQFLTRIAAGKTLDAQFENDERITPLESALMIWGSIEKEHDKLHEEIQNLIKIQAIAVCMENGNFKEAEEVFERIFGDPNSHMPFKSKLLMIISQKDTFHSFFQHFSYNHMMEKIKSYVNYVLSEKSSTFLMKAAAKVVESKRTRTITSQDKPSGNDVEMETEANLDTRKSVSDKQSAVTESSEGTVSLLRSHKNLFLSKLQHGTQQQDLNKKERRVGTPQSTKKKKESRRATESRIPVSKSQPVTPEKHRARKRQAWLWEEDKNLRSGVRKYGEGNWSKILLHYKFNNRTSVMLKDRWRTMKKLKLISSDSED
Sequence of Endothelial PAS domain-containing protein 1 (Homo sapiens), Q99814 F540L (Q99814 whole entry F540L, the tested form may be a part): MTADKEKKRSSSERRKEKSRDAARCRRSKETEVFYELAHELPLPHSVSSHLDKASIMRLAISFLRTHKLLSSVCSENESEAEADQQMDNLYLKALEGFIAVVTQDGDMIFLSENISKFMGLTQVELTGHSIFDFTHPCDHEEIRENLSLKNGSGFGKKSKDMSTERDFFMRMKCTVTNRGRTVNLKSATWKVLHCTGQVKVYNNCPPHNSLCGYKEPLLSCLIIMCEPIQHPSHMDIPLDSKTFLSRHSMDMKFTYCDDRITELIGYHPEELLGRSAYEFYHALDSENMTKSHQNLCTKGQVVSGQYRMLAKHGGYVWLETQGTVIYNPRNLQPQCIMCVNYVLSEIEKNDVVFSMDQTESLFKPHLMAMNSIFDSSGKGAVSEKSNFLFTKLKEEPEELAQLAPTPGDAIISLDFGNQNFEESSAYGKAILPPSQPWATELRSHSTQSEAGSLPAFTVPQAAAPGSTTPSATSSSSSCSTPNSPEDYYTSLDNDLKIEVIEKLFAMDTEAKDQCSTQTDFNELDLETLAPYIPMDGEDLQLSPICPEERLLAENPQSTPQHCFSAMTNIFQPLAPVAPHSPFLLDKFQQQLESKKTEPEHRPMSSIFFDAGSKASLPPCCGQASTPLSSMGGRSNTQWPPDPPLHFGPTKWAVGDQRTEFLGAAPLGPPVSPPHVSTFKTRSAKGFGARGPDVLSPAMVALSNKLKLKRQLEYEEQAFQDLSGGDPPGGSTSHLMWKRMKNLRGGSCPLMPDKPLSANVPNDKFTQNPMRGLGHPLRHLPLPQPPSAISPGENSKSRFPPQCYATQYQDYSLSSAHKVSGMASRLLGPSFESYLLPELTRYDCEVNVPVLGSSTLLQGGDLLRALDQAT
Sequence of G3BP2 (Q9UN86 whole entry): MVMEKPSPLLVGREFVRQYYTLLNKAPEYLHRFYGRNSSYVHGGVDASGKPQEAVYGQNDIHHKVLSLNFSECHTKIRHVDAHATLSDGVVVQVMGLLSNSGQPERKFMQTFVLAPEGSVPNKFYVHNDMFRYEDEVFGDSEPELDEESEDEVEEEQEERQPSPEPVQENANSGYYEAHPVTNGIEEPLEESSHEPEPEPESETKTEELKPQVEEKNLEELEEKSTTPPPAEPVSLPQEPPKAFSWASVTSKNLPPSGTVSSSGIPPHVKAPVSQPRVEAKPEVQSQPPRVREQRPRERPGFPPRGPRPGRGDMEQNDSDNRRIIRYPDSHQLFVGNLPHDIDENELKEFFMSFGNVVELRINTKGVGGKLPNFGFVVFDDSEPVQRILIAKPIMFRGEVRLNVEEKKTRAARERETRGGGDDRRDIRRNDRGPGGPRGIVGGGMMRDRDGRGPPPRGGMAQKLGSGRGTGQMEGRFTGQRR

Substance: Histone-lysine N-methyltransferase, H3 lysine-36 specific (Homo sapiens), Q96L73 L1797P
- effect of a mutation on the interaction [4]: decreasing interaction strength

Substance: Endothelial PAS domain-containing protein 1 (Homo sapiens), Q99814 F540L
- effect of a mutation on the interaction [5]: decreasing interaction strength

Substance: Titin (Homo sapiens), Q8WZ42 I34306T
- effect of a mutation on the interaction [3]: decreasing interaction strength

Substance: CREB-binding protein (Homo sapiens), Q92793 K13E
- effect of a mutation on the interaction [6]: causing an interaction
- effect of a mutation on the interaction [7]: disrupting interaction strength

More lines, now with the values ahead:

- effect of a mutation on the interaction [1]: decreasing interaction strength
Substance: Voltage-dependent T-type calcium channel subunit alpha-1H (Homo sapiens), O95180 P684R

- effect of a mutation on the interaction [2]: decreasing interaction strength
Substance: ADP-ribosylation factor-like protein 13B (Homo sapiens), Q3SXY8 N255K

- effect of a mutation on the interaction [3]: decreasing interaction strength
Substance: Titin (Homo sapiens), Q8WZ42 I34306N

- effect of a mutation on the interaction [1]: decreasing interaction strength
Substance: Voltage-dependent T-type calcium channel subunit alpha-1H (Homo sapiens), O95180 P684H

- effect of a mutation on the interaction [3]: decreasing interaction strength
Substance: Titin (Homo sapiens), Q8WZ42 I34306S

— IntAct's records for PubMed 39009827
